Measured values: publication PMC10477244

Assays:
[1] = target: T1, SARS-CoV-2 spike RBD (BEI NR-53800) (SARS-CoV-2 Wuhan-Hu-1, UniProt P0DTC2 319-541); test: ELISA-type bead assay (SA-HRP/TMB); 0.3 uM aptamer
[2] = target: T1, SARS-CoV-2 spike RBD (BEI NR-53800); test: ELISA-type bead assay (SA-HRP/TMB)
[3] = target: T1, SARS-CoV-2 spike RBD (BEI NR-53800); test: fluorescence binding, carbon-dot aptamer on Ni-NTA@RBD

Row | Binder | binding result [1] | binding result [2] | further results
1 | aptamer T (Apt@T2) (ssDNA) DNA: GGTATTGAGGGTCGCATCGTAATAGCGCATGTTGTGAGGCAGGCGCGAATCAGCTCGTGAGATGGCTCTAACTCTCCTCT | binds | – | –
2 | aptamer S (Apt@S2) (ssDNA) DNA: GGTATTGAGGGTCGCATCGAAACAGGGCGTGATACGACGCGACGGCGTACTGTGGTGGGATGGCTCTAACTCTCCTCT | binds | – | –
3 | aptamer W (Apt@W2) (ssDNA) DNA: GGTATTGAGGGTCGCATCGACACCGGGAGTGATACGTCGCGAGCACGTACTGTGTTGGGATGGCTCTAACTCTCCTCT | – | binds | –
4 | aptamer U (Apt@U2) (ssDNA) DNA: GGTATTGAGGGTCGCATCGTAATAGCGCATGTTGTGAGGCGGCGGAGTCATGTCGTGGGATGGCTCTAACTCTCCTCT | – | binds | –
5 | aptamer R (Apt@R2) (ssDNA) DNA: GGTATTGAGGGTCGCATCGTTACTGGACCAAACAGCACAAAGGACGCCCATAAACCCGGATGGCTCTAACTCTCCTCT | – | – | Kd [3]: 125 nM
